Experimental findings from PMC8420766, “Crystal structure of a MarR family protein from the psychrophilic bacterium Paenisporosarcina sp. TG-14 in complex with a lipid-like molecule” (IUCrJ, 2021) are described below.

Series [1] addresses MarR protein from Paenisporosarcina sp. TG-14 (Paenisporosarcina sp. TG-14). As to the kind of experiment: AUC; analytical ultracentrifugation at 40 000 rev/min, 20°C, detection at 280 nm, analysed with SEDFIT; one peak at a sedimentation coefficient of about 2.5 (31.3 kDa).
Series [2] has as its target T1, PaMarR (Paenisporosarcina sp. TG-14, UniProt A0A8J9SKQ8).
T1 construct: gene E2636_00495; N-terminal His6 tag (pET-28a(+), NdeI/XhoI) removed with thrombin; E. coli BL21(DE3); gene primer start TTGGATAAGAGAATAC (N-terminus M/L-DKRI)
As to the kind of experiment: X-ray crystal structure. The following applies: 1.6 A; co-purified from expression culture, not added; identity assigned from electron density; deep cavity in dimerization domain (helices a1, a6, a7), putative effector site; ammonium citrate pH 7.0. It counts as binding.

Series [3] has as its target T2, PaMarR (Paenisporosarcina sp. TG-14, UniProt A0A8J9SKQ8 1-147).
T2 sequence: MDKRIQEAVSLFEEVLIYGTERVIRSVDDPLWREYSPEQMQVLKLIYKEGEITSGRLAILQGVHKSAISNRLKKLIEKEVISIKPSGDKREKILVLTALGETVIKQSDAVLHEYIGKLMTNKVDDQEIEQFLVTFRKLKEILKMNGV
As to the kind of experiment: EMSA; 0.3-2.1 uM PaMarR, 0.5 uM duplex; B1 (one site) at low, B2 (both sites) at high protein; protein contains palmitate; EMSA: Dulbecco's PBS, 12% (v/v) glycerol, 0.5 uM duplex, 15 min at 37 C, 20 ul; 8% native PAGE with 5% glycerol in Tris-borate; pH not stated. To be noted: protein: recombinant; tags: N-terminal His6 (pET-28a NdeI/XhoI), removed with thrombin; chain copies: 2; label: none (GelRed stain); as printed: 52 bp duplex, 3' overhang 13 nt on strand 1 (second strand may be printed incompletely; Methods say complementary oligos). On the technique in general: A gel shift assay detects complexes by their altered migration in electrophoresis.

For orientation: stoichiometry N means a count of units in the complex or per binding partner. Molecule “MarR protein from Paenisporosarcina sp. TG-14 (natural protein)” showed a stoichiometry N in series [1] of 2.

Regarding `CCCCCCCCCCCCCCCC(=O)O` [palmitic acid], at PaMarR [2], the X-ray crystal structure entry is “a model of palmitic acid containing a 16-carbon chain was built, which had the best fit”.

B1: Palindrome probe (putative binding sites 1 and 2) (dsDNA)
DNA 1: TTTTAATAGTTCACCCCCTAAACTAACGTTATTGGTTTAGGGGGTGAACTATTATGCCCCCCATA
DNA 2: ATAGTTCACCCCCTAAACCAATAACGTTAGTTTAGGGGGTGAACTATTAAAA
As for B1, the binding result with PaMarR [3] is given as “binds”.
